In patent publication US20090221008A1 (Human Genome Sciences, published 2009):

Experiments:
[1] = target: T1, soluble form of Neutrokine-alpha (amino acids 134 to 285 of SEQ ID NO:2) (human, UniProt Q9Y275 134-285); experiment: summary of Example 10
T1 construct: also called rNeutrokine-alpha; soluble Neutrokine-alpha

[2] = target: T2, membrane-bound form of Neutrokine-alpha (human, UniProt Q9Y275 1-285); experiment: summary of Example 10
T2 construct: Endogenous type II membrane protein on THP-1 cells, monocytes and myeloid cell lines; also called Neutrokine-alpha on the surface of THP-1 cells; cell surface Neutrokine-alpha

[3] = target: T3, peptide comprising amino acid residues Val-227 to Asn-242 of SEQ ID NO:2 (human); experiment: epitope mapping with peptides
T3 peptide: VTLFRCIQNMPETLPN

T2 sequence (Q9Y275 whole entry): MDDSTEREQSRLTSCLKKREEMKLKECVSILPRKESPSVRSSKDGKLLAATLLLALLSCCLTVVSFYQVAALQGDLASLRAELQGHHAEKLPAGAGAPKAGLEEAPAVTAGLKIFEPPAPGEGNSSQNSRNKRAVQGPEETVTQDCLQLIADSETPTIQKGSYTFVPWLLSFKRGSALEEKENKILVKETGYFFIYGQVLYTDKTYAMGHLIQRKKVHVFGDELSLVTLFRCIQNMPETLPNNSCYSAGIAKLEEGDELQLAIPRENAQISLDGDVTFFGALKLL

binding result [1]: binds | binding result [2]: binds | binding result [3]: binds
B1: 15C10 (antibody, human IgG1, V domains shown)
VH: QVQLQQSGAELARPGASVKMSCRASGYTFTTYTMHWVKQRPGQGLEWIGYIIPRNTYTTFNQKFKNKATLTADKSSNTAYMQLSSLTSEDSAVYYCARHYGGGYWFFDVWGAGTTVTVSS
VL: ELVMTQTPASLAVSLGQRATISCRGSESVDSYGNSFMHWYQQKPGQPPKLLIYRASNLESGIPARFSGSGSRTDFTLTIYPVEADDVATYYCQQSNDDPMYTFGGGTKLEIKR
notes: Murine monoclonal antibody; hybridoma ATCC PTA-1158; A chimeric form with human IgG1/kappa was deposited as ATCC PTA-3794; also called anti-Neutrokine-alpha antibody 15C10
